The results in this text go back to patent US11155602B2, “Polypeptides targeting HIV fusion” (priority 2015, dated 2021).

The EC50 is the concentration giving half of the maximal effect.

Where a chain is given by its changes, count along the chain named.

Sequences and labels used below:
B1: 116 (protein)
chain: MASTSGVSDVPRDLEVVAATPTSLLISWDAPAVTVEQYYIAYYVEGEPSSYQYFRVPGSKSTATISGLKPGVLYHIYVNAVTGSGLRPEFSLPIRIKYRTEGSGSHHHHHH
modifications: Adnectin
B2: 149 (protein)
chain: MGHHHHHHGGSVSDVPRDLEVVAATPTSLLISWEYKVHPYRYYRITYGETGGNSPVQEFTVPSVLSTATISGLKPGVDYTITVYAVTYGKDSAPISINYRTEID
modifications: Adnectin
B3: 169 (protein)
chain: B2 chain with K36N, H38N, Y88R, K90V
modifications: Adnectin
B4: 117 (protein)
chain: B2 chain with K90D
modifications: Adnectin
B5: 161 (protein)
chain: B2 chain with T67S, T69E, K90D
modifications: Adnectin
B6: 168 (protein)
chain: B2 chain with H38N, P39A, K90V, D91L, A93P
modifications: Adnectin
B7: 166 (protein)
chain: B2 chain with E34K, K36N, V37L, K90I, D91I, A93E
modifications: Adnectin
B8: 167 (protein)
chain: B2 chain with K36R, H38N, K90V, D91Q, A93P
modifications: Adnectin
B9: 171 (protein)
chain: B2 chain with E34K, K36Q, P39A, K90I, D91I, A93E
modifications: Adnectin
B10: 165 (protein)
chain: B2 chain with H38N, K90V, D91H, A93S
modifications: Adnectin
B11: 159 (protein)
chain: B2 chain with K90D, N98P, E102P, I103G, D104G
modifications: Adnectin
B12: 174 (protein)
chain: B2 chain with K36N, H38N, P39A, K90I, D91I, A93E
modifications: Adnectin
B13: 153 (protein)
chain: B2 chain with T69Q, K90D
modifications: Adnectin
B14: 164 (protein)
chain: B2 chain with E34K, K36Q, P39A, K90V, D91Y
modifications: Adnectin
B15: 170 (protein)
chain: B2 chain with H38S, Y88F, K90I, D91R, A93S
modifications: Adnectin
B16: 173 (protein)
chain: B2 chain with S11A, H38N, Y40W, K90V, D91H, A93S
modifications: Adnectin
B17: 163 (protein)
chain: B2 chain with D18Y, E34Q, Y42W, K90V, D91N, A93I
modifications: Adnectin
B18: 172 (protein)
chain: B2 chain with H38D, K90I, A93S
modifications: Adnectin
B19: 162 (protein)
chain: B2 chain with T67S, T69Q, K90D
modifications: Adnectin
B20: 141 (protein)
chain: MGVSDVPRDLEVVAATPTSLLISWQYKVHPYRYYRITYGETGGNSPVQEFTVPSVLSTATISGLKPGVDYTITVYAVTYGIQSPPISINYRTEIDKPSQHHHHHH
modifications: Adnectin
B21: 160 (protein)
chain: B20 chain with Q25E, H29D, I81V, Q82E, P84S
modifications: Adnectin
B22: 143 (protein)
chain: B20 chain with Q25E, K27N, H29N, Q82E, P84S
modifications: Adnectin
B23: 158 (protein)
chain: B20 chain with Q25E, P30Y, Y31D
modifications: Adnectin
B24: 154 (protein)
chain: B20 chain with Q25E, K27N, H29N, I81V, Q82N, P84L
modifications: Adnectin
B25: 151 (protein)
chain: B20 chain with Q25E, Q82D, P84S
modifications: Adnectin
B26: 118 (protein)
chain: B20 chain with Q25K, I81V, Q82N, P84L
modifications: Adnectin
B27: 146 (protein)
chain: B20 chain with Q25E, Q82D
modifications: Adnectin
B28: 142 (protein)
chain: B20 chain with Q25R, K27R, Y79D, I81V, P84S
modifications: Adnectin
B29: 152 (protein)
chain: B20 chain with Q25E, K27N, H29N, I81V, P84D
modifications: Adnectin
B30: 156 (protein)
chain: B20 chain with Q25E, H29N, Y31W, Q82E, P84S
modifications: Adnectin
B31: 147 (protein)
chain: B20 chain with Q25E, I81V, Q82D, P84D
modifications: Adnectin
B32: 144 (protein)
chain: B20 chain with I81V, Q82E, P84S
modifications: Adnectin
B33: 145 (protein)
chain: B20 chain with Q25E, I81V, Q82N, P84L
modifications: Adnectin
B34: 148 (protein)
chain: B20 chain with Q25E, K27N, H29N, Q82D
modifications: Adnectin
B35: 150 (protein)
chain: B20 chain with Q25E, K27N, H29N, I81V, Q82E, P84S
modifications: Adnectin
B36: 157 (protein)
chain: B20 chain with I81V, Q82N, P84I
modifications: Adnectin
B37: 155 (protein)
chain: B20 chain with Y79H, I81V, Q82H, P84A
modifications: Adnectin
B38: 119 (protein)
chain: MGVSDVPRDLEVVAATPTSLLISWDAPAVTVGWYHIGYNVEGEPASYQYFRVPGSKSTATISGLKPGVEYMIFVNAVTGSGAREEFSLPISINYRTEGSGSHHHHHH
modifications: Adnectin
B39: 140 (protein)
chain: MGVSDVPRDLEVVAATPTSLLISWDLLEDMSRYYRITYGETGGNSPVQEFTVPTDAYTATISGLKPGVDYTITVYAVTQDSHVIELSYPISINYRTEIDKPSQHHHHHH
modifications: Adnectin

The test system of the experiment is NL-Rluc virus. In words: Combinectin potency assay: antiviral EC50, NL-Rluc virus in MT-2 cells, luciferase readout. The format is cell-based, HIV-1. The conditions noted are these: Anti-N17 Adnectin, Table 3. As for the experimental part:
MT-2 cells, HEK 293T cells and the proviral DNA clone of […] were obtained from the NIH AIDS Research and Reference Reagent Program. MT-2 cells were propagated in RPMI 1640 medium supplemented with 10% heat-inactivated fetal bovine serum (FBS), 10 mM HEPES buffer pH 7.55, and 2 mM L-glutamine. HEK 293T cells were propagated in DMEM media supplemented with 10% heat-inactivated FBS, 10 mM HEPES buffer pH 7.55 and 2 mM L-glutamine. Recombinant NL-Rluc virus, in which a section of the nef gene from the proviral clone of NL4-3 was replaced with the Renilla luciferase gene, was constructed at Bristol-Myers Squibb. The replication-competent virus was harvested 3 days after transfection of HEK 293T cells with the modified pNL-Rluc proviral clone. Transfections were performed using Lipofectamine Plus (Invitrogen, Carlsbad, Calif.), according to manufacturer's instruction. Virus was titered in MT-2 cells using luciferase enzyme activity as a biomarker. The NL-Rluc virus used to infect MT-2 cells a multiplicity of 0.01 for 1 hour before adding to the peptides in 96-well plates. Peptides were serially diluted three-fold and 11 concentrations were plated in triplicate. After 4-5 days of incubation, cells were processed and quantitated for virus growth by the amount of expressed luciferase. Luciferase was quantitated using the Dual Luciferase kit from Promega (Madison, Wis.), with modifications to the manufacturer's protocol. The diluted Passive Lysis solution was pre-mixed with the re-suspended Luciferase Assay Reagent and then re-suspended in STOP & GLO® Substrate (2:1:1 ratio). A total of […] of the mixture was added to each aspirated well on assay plates and luciferase activity was measured immediately on a Wallac TriLux (Perkin-Elmer, Waltham, Mass.). The 50% effective concentration (EC50) was calculated by comparing the amount of luciferase produced in the presence of inhibitory peptide compared to wells where no peptide was added.
For the molecule B1, the EC50 was determined as 50 nM.
The same measure for B2: 3 nM; for B3: 5 nM.
Take B4: the EC50 came to 42 nM.
For B5 the value was 13 nM; for B6, 42 nM; for B7, 50 nM.
The same measure for B8: 42 nM; for B9: 35 nM.
For B10 the value was 42 nM; for B11, 23 nM; for B12, 5 nM.
Take B13: the EC50 came out at 8 nM.
The same measure for B14: 35 nM; for B15: 5 nM.
The same measure for B16: 5 nM; for B17: 35 nM; for B18: 5 nM.
For B19 the value was 35 nM; for B20, 3 nM.
In the case of B21, the concentration for a half-maximal effect (EC50) amounted to 58 nM.
For B22 the value was 20 nM; for B23, 85 nM.
The same measure for B24: 8 nM; for B25: 11 nM.
The same measure for B26: 28 nM.
Consider B27, for which the EC50 stood at 11 nM.
For B28 the value was 55 nM.
For B29 the value was 20 nM.
For B30 the value was 43 nM; for B31, 28 nM.
Take B32: the concentration giving a half-maximal response (EC50) was 20 nM.
On to B33, for which the EC50 was 11 nM.
The same measure for B34: 14 nM.
The same measure for B35: 18 nM; for B36: 43 nM.
For B37 the value was 9 nM; for B38, over 1000 nM; for B39, 950 nM.
